Key:
Format in all cases: biochemical
[1] = biological target: T1, soybean LOX-1 (Glycine max, UniProt P08170); test: Kinetics of oxygenation of docosahexaenoic acid derivatives by soybean LOX-1; settings: soybean LOX-1 2.5 units/ml, 50 mM borax buffer pH 9.0, 25° C.
T1 construct: purchased Sigma-Aldrich Corp (St. Louis, Mo., USA) lipoxidase Type I-B
T1 sequence (P08170 1-839): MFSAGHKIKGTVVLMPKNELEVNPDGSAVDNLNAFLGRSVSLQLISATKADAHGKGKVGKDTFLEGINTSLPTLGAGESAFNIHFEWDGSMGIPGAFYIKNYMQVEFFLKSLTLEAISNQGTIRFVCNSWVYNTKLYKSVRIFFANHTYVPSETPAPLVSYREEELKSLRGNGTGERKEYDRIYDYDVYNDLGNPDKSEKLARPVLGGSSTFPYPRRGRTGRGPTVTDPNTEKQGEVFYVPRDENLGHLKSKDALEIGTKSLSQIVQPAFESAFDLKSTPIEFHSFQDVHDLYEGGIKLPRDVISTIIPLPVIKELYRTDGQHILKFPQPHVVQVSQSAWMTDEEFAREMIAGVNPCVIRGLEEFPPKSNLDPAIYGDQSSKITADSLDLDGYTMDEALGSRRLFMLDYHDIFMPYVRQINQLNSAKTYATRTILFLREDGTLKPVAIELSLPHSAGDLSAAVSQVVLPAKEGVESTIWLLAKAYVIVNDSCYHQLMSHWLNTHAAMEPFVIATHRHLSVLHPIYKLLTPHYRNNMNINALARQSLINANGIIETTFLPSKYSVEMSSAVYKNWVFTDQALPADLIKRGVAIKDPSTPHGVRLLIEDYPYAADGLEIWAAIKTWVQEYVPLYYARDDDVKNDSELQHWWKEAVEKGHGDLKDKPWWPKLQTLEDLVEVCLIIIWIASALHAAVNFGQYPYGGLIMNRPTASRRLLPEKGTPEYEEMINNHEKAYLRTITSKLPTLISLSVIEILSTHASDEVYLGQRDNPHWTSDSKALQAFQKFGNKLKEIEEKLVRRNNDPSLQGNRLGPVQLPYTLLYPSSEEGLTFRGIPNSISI
Protocol: (§1) Soybean LOX-1 (2.5 units/ml) was incubated with docosahexaenoyl-lysoPC, didocosahexaenoyl-lysoPC or docosahexaenoic acid of various concentrations in 500 μl of 50 mM borax buffer (pH 9.0) at 25° C. Values were expressed as means ±S.D. of results from at least three independent experiments.

[2] = biological target: T2, Porcine leukocyte LOX (Sus scrofa, UniProt P16469); test: Kinetics of oxygenation of docosahexaenoyl-lysoPC or docosahexaenoic acid by leukocyte LOX; settings: porcine leukocyte LOX 2 units/ml, 100 mM phosphate buffer pH 7.4, 5 mM EDTA
T2 construct: purchased Cayman Chemical Co. (Ann Arbor, Mich., USA)
T2 sequence (P16469 1-663): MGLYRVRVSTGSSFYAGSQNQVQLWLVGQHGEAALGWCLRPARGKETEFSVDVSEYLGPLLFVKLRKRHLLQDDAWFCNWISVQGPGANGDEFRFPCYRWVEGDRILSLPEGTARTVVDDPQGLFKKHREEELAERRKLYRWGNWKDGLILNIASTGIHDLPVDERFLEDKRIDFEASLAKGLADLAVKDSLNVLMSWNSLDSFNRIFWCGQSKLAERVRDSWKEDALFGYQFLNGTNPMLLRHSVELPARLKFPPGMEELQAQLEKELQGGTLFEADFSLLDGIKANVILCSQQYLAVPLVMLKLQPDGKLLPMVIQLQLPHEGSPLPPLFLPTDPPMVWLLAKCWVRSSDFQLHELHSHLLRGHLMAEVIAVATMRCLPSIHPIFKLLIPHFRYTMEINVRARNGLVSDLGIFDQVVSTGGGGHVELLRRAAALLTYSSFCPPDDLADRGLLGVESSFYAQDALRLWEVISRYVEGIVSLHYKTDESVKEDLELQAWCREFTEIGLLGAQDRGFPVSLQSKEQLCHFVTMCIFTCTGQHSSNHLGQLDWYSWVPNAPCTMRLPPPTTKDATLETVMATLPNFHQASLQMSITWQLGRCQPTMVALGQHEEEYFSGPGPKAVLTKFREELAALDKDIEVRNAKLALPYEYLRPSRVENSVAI
Protocol: Porcine leukocyte LOX (2 units/ml) was incubated with each substrate docosahexaenoyl-lysoPC or docosahexaenoic acid of various concentrations in 500 μl of 100 mM phosphate buffer (pH 7.4) containing 5 mM EDTA and 0.03% Tween 20 at 25° C.

[3] = substrate: CCCCC/C=C\C/C=C\C/C=C\C/C=C\CCCC(=O)O; test: Kinetics of oxygenation of arachidonic acid or arachidonoyl-lysophospholipids by soybean LOX-1; settings: other: soybean LOX-1 2.5 units/ml, 50 mM borax buffer pH 9.0, 25° C.
Protocol: Activities of various LOXs were monitored by measuring the increase in absorbance at 234 nm due to the formation of hydroperoxide (ε234=25,000 M^−1 cm^−1) at 25° C. as described before (Smith et al, J. Biol. Chem. 247 (1972) 1038-1047). One unit is defined as the amount of LOXs that can produce one nanomole of conjugated diene per min. The reaction mixture (500 μl) included reticulocyte LOX (2 units/ml) in 50 mM phosphate buffer (pH 7.4), porcine leukocyte LOX (1 unit/ml) in 100 mM phosphate buffer (pH 7.5) containing 5 mM EDTA and 0.03% Tween 20, or soybean LOX-1 (2.5 units/ml) in 50 mM borax buffer (pH 9.0) at 25° C. The reactions were started by including each substrate (100 μM) into the above reaction mixture.
Reticulocyte LOX (2 units/ml), leukocyte LOX (1 units/ml) or soybean LOX-1 (2.5 units/ml) was incubated with each arachidonoyl derivative substrate of various concentrations as described above. The values of kinetic parameters were obtained according to Lineweaver Burke plot analyses as described before (Barroso et al, J. Chromatogr. B. Analyt. Technol. Biomed. Life. Sci. 814 (2005) 21-28).

[4] = substrate: CC/C=C\C/C=C\C/C=C\C/C=C\C/C=C\C/C=C\CCC(=O)O; test: Kinetics of oxygenation of docosahexaenoic acid derivatives by soybean LOX-1; settings: other: soybean LOX-1 2.5 units/ml, 50 mM borax buffer pH 9.0, 25° C.
Protocol: as §1

`CC/C=C\C/C=C\C/C=C\C/C=C\C/C=C\C/C=C\CCC(=O)OCC(O)COP(=O)([O-])OCC[N+](C)(C)C` (stereo not drawn) [Docosahexaenoyl-lysoPC, 1-docosahexenoyl lysophosphatidylcholine] was tested, and the Km [1] was 2.2 ± 0.6 µM, the Vm [1] was 104.2 ± 5.2 units/μg and the Vm ([2]; 0.03% Tween 20) was 77.2 ± 2.8 units/mg. For the same molecule, the Km ([2]; 0.03% Tween 20, 25° C.) was 3.4 ± 1.8 µM.

B1: soybean LOX-1 (Glycine max) (protein)
chain: MFSAGHKIKGTVVLMPKNELEVNPDGSAVDNLNAFLGRSVSLQLISATKADAHGKGKVGKDTFLEGINTSLPTLGAGESAFNIHFEWDGSMGIPGAFYIKNYMQVEFFLKSLTLEAISNQGTIRFVCNSWVYNTKLYKSVRIFFANHTYVPSETPAPLVSYREEELKSLRGNGTGERKEYDRIYDYDVYNDLGNPDKSEKLARPVLGGSSTFPYPRRGRTGRGPTVTDPNTEKQGEVFYVPRDENLGHLKSKDALEIGTKSLSQIVQPAFESAFDLKSTPIEFHSFQDVHDLYEGGIKLPRDVISTIIPLPVIKELYRTDGQHILKFPQPHVVQVSQSAWMTDEEFAREMIAGVNPCVIRGLEEFPPKSNLDPAIYGDQSSKITADSLDLDGYTMDEALGSRRLFMLDYHDIFMPYVRQINQLNSAKTYATRTILFLREDGTLKPVAIELSLPHSAGDLSAAVSQVVLPAKEGVESTIWLLAKAYVIVNDSCYHQLMSHWLNTHAAMEPFVIATHRHLSVLHPIYKLLTPHYRNNMNINALARQSLINANGIIETTFLPSKYSVEMSSAVYKNWVFTDQALPADLIKRGVAIKDPSTPHGVRLLIEDYPYAADGLEIWAAIKTWVQEYVPLYYARDDDVKNDSELQHWWKEAVEKGHGDLKDKPWWPKLQTLEDLVEVCLIIIWIASALHAAVNFGQYPYGGLIMNRPTASRRLLPEKGTPEYEEMINNHEKAYLRTITSKLPTLISLSVIEILSTHASDEVYLGQRDNPHWTSDSKALQAFQKFGNKLKEIEEKLVRRNNDPSLQGNRLGPVQLPYTLLYPSSEEGLTFRGIPNSISI
notes: purchased Sigma-Aldrich Corp (St. Louis, Mo., USA) lipoxidase Type I-B
For B1, the Km [3] was 12.4 µM, the Vmax [3] was 92200 nmol/min/mg and the Vmax/Km [3] was 7.4e+06 µL/min/mg. The Km [4] was 16.8 ± 1.4 µM and the Vmax [4] was 178000 nmol/min/mg.

From patent publication US20070264679A1, “Method for analyzing the activity of lipoxygenase using a water-soluble substrate” (Chungnam National University Industry Collaboration …, priority 2006, published 2007)
